According to US20240261333A1, “NOVEL TARGETS FOR ENHANCING ANTI-TUMOR IMMUNITY” (THE BROAD INSTITUTE, INC., priority 2021, published 2024):

Assays:
SLC25A1 = SLC25A1 (UniProt P53007); assay: co-IP, anti-FLAG, lysate of N-FLAG B3GNT2 cells, mass spectrometry
PIP (human) = PIP (human) (UniProt P12273); assay: co-IP/MS, IgG control IP of C-FLAG B3GNT2 cell lysate
RPL13A (human) = RPL13A (human) (UniProt P40429); assay: as above
RPLPO (human) = RPLPO (human) (UniProt P05388); assay: as above
CASP14 (human) = CASP14 (human) (UniProt P31944); assay: as above
RPL24 (human) = RPL24 (human) (UniProt P83731); assay: as above
CAPZA1 (human) = CAPZA1 (human) (UniProt P52907); assay: as above
ERLIN1 (human) = ERLIN1 (human) (UniProt O75477); assay: as above
FAM3C (human) = FAM3C (human) (UniProt Q92520); assay: as above
TGM3 (human) = TGM3 (human) (UniProt Q08188); assay: as above
PRDX1 (human) = PRDX1 (human) (UniProt Q06830); assay: as above
SQSTM1 (human) = SQSTM1 (human) (UniProt Q13501); assay: as above
RPL14 (human) = RPL14 (human) (UniProt P50914); assay: as above
RPL12 (human) = RPL12 (human) (UniProt P30050); assay: as above
RPS9 (human) = RPS9 (human) (UniProt P46781); assay: as above
SLC25A4 (human) = SLC25A4 (human) (UniProt P12235); assay: as above
IPO4 (human) = IPO4 (human) (UniProt Q8TEX9); assay: as above
DNAJA1 (human) = DNAJA1 (human) (UniProt P31689); assay: as above
FKBP10 (human) = FKBP10 (human) (UniProt Q96AY3); assay: as above
PDIA6 (human) = PDIA6 (human) (UniProt Q15084); assay: as above
RCN2 (human) = RCN2 (human) (UniProt Q14257); assay: as above
TUBB (human) = TUBB (human) (UniProt P07437); assay: as above
PRDX2 (human) = PRDX2 (human) (UniProt P32119); assay: as above
CAPZB (human) = CAPZB (human) (UniProt P47756); assay: as above
LRP1 (human) = LRP1 (human) (UniProt Q07954); assay: as above
RPS7 (human) = RPS7 (human) (UniProt P62081); assay: as above
ATP1A1 (human) = ATP1A1 (human) (UniProt P05023); assay: as above
PCBP1 (human) = PCBP1 (human) (UniProt Q15365); assay: as above
CANX (human) = CANX (human) (UniProt P27824); assay: as above
RPS15 (human) = RPS15 (human) (UniProt P62841); assay: as above
RPS5 (human) = RPS5 (human) (UniProt P46782); assay: as above
CKAP4 (human) = CKAP4 (human) (UniProt Q07065); assay: as above
HSD17B12 (human) = HSD17B12 (human) (UniProt Q53GQ0); assay: as above
UQCRC2 (human) = UQCRC2 (human) (UniProt P22695); assay: as above
ERLIN2 (human) = ERLIN2 (human) (UniProt O94905); assay: as above
RPS3A (human) = RPS3A (human) (UniProt P61247); assay: as above
RPS12 (human) = RPS12 (human) (UniProt P25398); assay: as above
RPL30 (human) = RPL30 (human) (UniProt P62888); assay: as above

Chain of PDIA6 (human) (Q15084 20-440 limits assumed): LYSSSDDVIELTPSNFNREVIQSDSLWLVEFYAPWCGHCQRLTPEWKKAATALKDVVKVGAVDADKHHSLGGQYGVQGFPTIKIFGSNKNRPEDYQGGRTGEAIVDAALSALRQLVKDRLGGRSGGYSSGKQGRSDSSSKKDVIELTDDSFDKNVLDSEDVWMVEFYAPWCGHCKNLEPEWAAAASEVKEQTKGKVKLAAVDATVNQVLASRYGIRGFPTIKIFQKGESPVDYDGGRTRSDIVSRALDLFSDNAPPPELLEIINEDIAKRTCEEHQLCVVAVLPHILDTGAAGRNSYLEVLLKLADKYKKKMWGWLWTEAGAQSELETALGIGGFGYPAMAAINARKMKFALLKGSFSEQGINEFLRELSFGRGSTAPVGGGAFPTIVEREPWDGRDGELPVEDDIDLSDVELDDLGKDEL
Chain of TUBB (human) (P07437 whole entry): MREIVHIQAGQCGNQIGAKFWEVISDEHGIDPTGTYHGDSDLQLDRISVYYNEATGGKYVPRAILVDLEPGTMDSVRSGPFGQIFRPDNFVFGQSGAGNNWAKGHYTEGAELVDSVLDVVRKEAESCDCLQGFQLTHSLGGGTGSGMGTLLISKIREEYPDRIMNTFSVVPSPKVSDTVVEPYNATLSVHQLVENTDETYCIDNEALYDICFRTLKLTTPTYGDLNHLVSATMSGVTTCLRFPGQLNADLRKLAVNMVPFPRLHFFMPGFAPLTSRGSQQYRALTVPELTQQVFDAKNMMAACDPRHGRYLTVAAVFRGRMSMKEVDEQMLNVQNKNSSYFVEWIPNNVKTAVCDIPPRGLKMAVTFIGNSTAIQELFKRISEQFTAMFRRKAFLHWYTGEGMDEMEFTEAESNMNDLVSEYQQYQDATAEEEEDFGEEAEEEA
Chain of FKBP10 (human) (Q96AY3 27-582 limits assumed): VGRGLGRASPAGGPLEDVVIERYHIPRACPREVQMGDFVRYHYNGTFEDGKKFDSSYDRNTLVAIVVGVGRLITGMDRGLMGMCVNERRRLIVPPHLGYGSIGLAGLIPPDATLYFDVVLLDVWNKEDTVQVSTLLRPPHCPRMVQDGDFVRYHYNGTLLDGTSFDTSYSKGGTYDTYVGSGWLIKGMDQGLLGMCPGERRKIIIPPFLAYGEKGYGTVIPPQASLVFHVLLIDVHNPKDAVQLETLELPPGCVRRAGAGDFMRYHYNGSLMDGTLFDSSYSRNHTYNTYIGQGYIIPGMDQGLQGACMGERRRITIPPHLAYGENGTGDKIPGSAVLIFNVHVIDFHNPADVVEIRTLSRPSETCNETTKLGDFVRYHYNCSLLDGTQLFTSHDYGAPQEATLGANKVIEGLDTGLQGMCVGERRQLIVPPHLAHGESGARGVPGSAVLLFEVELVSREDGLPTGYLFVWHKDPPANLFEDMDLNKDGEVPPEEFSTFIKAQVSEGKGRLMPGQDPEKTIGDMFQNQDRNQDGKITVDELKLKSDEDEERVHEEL
Chain of ERLIN1 (human) (O75477 whole entry): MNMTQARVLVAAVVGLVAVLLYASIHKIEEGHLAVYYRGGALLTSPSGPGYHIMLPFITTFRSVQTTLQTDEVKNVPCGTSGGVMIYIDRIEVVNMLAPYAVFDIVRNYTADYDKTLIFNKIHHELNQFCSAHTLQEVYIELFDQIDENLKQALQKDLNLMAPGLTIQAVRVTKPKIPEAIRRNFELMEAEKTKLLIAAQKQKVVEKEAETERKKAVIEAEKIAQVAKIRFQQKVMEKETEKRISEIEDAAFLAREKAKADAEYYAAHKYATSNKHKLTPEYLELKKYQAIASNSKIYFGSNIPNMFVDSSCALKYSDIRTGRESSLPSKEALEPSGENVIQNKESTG
Chain of HSD17B12 (human) (Q53GQ0 whole entry): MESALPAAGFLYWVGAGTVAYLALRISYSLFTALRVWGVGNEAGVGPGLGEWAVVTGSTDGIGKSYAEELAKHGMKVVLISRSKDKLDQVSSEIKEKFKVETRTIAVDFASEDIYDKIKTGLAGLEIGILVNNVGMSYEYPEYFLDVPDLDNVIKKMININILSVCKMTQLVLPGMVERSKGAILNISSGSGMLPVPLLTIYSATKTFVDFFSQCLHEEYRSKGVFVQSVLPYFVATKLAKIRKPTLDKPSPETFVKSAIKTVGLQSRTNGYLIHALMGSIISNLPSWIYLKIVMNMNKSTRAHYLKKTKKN
Chain of CANX (human) (P27824 21-592 limits assumed): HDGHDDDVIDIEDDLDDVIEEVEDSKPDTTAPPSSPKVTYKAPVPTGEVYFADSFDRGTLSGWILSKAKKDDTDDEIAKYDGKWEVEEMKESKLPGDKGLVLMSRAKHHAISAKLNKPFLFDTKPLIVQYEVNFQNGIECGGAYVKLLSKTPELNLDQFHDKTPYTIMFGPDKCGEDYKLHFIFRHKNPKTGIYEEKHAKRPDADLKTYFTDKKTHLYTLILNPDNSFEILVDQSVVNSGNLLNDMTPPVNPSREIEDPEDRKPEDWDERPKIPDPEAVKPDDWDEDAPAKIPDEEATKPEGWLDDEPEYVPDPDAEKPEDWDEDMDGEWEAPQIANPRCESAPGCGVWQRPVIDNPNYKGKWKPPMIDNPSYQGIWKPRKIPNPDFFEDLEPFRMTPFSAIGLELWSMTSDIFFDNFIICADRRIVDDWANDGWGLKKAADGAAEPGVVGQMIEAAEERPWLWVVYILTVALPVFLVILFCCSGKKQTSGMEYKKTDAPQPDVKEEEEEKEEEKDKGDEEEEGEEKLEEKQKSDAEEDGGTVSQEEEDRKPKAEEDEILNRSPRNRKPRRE
Chain of CKAP4 (human) (Q07065 whole entry): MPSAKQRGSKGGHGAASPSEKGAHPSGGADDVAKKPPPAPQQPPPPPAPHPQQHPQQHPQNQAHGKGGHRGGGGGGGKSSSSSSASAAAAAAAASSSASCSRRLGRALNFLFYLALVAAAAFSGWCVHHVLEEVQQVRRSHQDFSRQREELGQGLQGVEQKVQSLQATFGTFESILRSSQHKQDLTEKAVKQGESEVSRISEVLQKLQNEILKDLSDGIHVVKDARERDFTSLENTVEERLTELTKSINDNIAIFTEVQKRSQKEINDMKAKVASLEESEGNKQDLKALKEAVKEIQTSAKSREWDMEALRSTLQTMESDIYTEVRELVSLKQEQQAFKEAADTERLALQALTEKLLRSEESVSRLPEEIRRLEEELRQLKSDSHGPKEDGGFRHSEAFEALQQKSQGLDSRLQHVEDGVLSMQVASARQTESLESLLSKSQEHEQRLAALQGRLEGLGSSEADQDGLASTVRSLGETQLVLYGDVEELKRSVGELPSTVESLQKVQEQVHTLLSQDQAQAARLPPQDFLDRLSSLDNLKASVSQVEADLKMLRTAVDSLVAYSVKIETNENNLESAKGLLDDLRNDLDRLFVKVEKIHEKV
Chain of TGM3 (human) (Q08188 2-693 limits assumed): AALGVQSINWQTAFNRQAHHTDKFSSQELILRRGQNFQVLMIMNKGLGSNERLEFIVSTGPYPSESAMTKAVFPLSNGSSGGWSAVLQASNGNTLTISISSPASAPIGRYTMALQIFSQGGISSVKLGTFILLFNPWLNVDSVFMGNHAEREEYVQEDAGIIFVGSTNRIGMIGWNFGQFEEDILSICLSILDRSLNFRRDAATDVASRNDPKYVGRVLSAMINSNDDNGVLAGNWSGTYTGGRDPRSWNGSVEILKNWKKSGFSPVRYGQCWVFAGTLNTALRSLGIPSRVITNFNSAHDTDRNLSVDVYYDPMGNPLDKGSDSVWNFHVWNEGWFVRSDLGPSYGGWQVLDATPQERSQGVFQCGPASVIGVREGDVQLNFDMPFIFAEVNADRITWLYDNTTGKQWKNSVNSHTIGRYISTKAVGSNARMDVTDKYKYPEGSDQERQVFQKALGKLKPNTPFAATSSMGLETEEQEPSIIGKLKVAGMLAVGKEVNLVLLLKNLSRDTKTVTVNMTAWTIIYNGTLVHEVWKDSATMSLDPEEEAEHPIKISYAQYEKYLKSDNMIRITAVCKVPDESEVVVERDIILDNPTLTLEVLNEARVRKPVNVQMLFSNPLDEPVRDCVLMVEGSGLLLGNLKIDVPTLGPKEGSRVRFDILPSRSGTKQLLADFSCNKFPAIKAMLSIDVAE
Chain of PIP (human) (P12273 29-146 limits assumed): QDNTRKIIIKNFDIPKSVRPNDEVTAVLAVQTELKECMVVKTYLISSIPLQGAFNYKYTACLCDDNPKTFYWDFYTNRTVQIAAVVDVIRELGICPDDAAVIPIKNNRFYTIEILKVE
Chain of PRDX1 (human) (Q06830 2-199 limits assumed): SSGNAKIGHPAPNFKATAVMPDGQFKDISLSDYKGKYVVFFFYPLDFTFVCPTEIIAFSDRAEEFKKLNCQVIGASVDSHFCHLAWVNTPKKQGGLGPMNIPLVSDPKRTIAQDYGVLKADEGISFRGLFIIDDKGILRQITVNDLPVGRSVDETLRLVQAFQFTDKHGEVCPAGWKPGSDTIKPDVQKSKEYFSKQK
Chain of FAM3C (human) (Q92520 25-227 limits assumed): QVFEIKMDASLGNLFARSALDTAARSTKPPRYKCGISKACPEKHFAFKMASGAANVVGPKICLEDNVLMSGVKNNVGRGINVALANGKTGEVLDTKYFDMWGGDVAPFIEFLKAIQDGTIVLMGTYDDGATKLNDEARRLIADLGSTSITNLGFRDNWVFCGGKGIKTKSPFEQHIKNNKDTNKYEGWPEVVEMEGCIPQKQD
Chain of PCBP1 (human) (Q15365 whole entry): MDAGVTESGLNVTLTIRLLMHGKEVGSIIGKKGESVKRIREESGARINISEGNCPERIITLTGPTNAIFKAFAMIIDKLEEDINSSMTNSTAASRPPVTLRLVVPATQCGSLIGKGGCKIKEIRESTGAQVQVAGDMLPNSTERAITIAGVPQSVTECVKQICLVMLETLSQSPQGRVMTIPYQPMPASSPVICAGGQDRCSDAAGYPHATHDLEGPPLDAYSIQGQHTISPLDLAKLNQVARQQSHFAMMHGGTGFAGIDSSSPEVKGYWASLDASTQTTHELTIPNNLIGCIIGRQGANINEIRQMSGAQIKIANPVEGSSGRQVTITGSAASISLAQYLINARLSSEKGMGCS

N-terminal FLAG tagged B3GNT2 (from UniProt Q9NY97 1-397) (enzyme)
5: co-IP/MS count (SLC25A1)

IgG control (Millipore Sigma 12-371) (antibody)
3: co-IP mass spectrometry count (RPL24 (human)) | co-IP mass spectrometry count (TGM3 (human)) | co-IP mass spectrometry count (SQSTM1 (human)) | co-IP mass spectrometry count (PCBP1 (human))
4: co-IP mass spectrometry count (CASP14 (human)) | co-IP mass spectrometry count (RPS12 (human)) | co-IP mass spectrometry count (RPL30 (human))
5: co-IP mass spectrometry count (RPL12 (human)) | co-IP mass spectrometry count (RPS7 (human))
0: co-IP mass spectrometry count (RPL13A (human)) | co-IP mass spectrometry count (RPLPO (human)) | co-IP mass spectrometry count (CAPZA1 (human)) | co-IP mass spectrometry count (ERLIN1 (human)) | co-IP mass spectrometry count (FAM3C (human)) | co-IP mass spectrometry count (PRDX1 (human)) | co-IP mass spectrometry count (RPS9 (human)) | co-IP mass spectrometry count (SLC25A4 (human)) | co-IP mass spectrometry count (IPO4 (human)) | co-IP mass spectrometry count (DNAJA1 (human)) | co-IP mass spectrometry count (FKBP10 (human)) | co-IP mass spectrometry count (PDIA6 (human)) | co-IP mass spectrometry count (RCN2 (human)) | co-IP mass spectrometry count (PRDX2 (human)) | co-IP mass spectrometry count (CAPZB (human)) | co-IP mass spectrometry count (LRP1 (human)) | co-IP mass spectrometry count (ATP1A1 (human)) | co-IP mass spectrometry count (CANX (human)) | co-IP mass spectrometry count (RPS5 (human)) | co-IP mass spectrometry count (CKAP4 (human)) | co-IP mass spectrometry count (HSD17B12 (human)) | co-IP mass spectrometry count (UQCRC2 (human)) | co-IP mass spectrometry count (ERLIN2 (human))
2: co-IP mass spectrometry count (PIP (human)) | co-IP mass spectrometry count (RPS15 (human))
10: co-IP mass spectrometry count (TUBB (human)) | co-IP mass spectrometry count (RPS3A (human))
8: co-IP mass spectrometry count (RPL14 (human))
